From the supplement of paper PMC10201428
± gives the standard deviation of the averaged measurements.

B1: library; a variant is named by its letters at N, in order (parent)
chain: AATGTTGTTGATGCAACCATAAAGTGATATTTAATAATTATTTATAATCAGCAACTTAACCACAAAACAACCATATATTGATATNTCACAAAACAACCATAANTTGATATTTTTGTGAATCGAGTATTTCAGCAAAACTACTGCAGTAAGAA

Tests used:
[1] = variants of: B1; test: relative integration efficiency (T-LR orientation) vs wild-type transposon end (log2 (normalized fold change)); transposon end mutated: left end; higher = more efficient transposition; conditions: with VchCAST RNA-guided transposition machinery (E. coli BL21(DE3) host, lacZ target)
Outline: (§1)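 In E. coli BL21(DE3), a T7-driven effector plasmid was paired with a pUC57 mini-transposon donor containing 1549 left-end or 1849 right-end barcoded transposon variants. Cells grew on plates with 0.1 mM IPTG at 37°C for 18 h. Relative integration efficiency was derived from Illumina reads of genomic integration junctions against input plasmids, as a log-transformed output/input barcode fold change normalised to reference barcodes.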

[2] = variants of: B1; test: relative integration efficiency (T-RL orientation) vs wild-type transposon end (log2 (normalized fold change)); transposon end mutated: left end; higher = more efficient transposition; conditions: with VchCAST RNA-guided transposition machinery (E. coli BL21(DE3) host, lacZ target)
Outline: as §1

Row | Variant | relative integration efficiency (log2) [1] | relative integration efficiency (log2) [2]
1 | CG T32G T86G T112G | -0.809 ± 0.9 | -0.686 ± 0.19
2 | CG T39C A40T T41G T43G A46T A47G C49T G51T A54C C55A | -4.29 ± 1.2 | -2.86 ± 0.84
3 | CG T76A A77T | -0.19 ± 0.3 | 0.117 ± 0.012
4 | CG T32A A33T A34T T35A | 0.141 ± 0.33 | -0.0669 ± 0.14
5 | CG T28A A29T | -0.0554 ± 0.23 | -0.309 ± 0.44
6 | CG T45A A46T | -0.208 ± 0.19 | 0.192 ± 0.024
7 | CG T111A T112A | -0.101 ± 0.79 | -0.479 ± 0.31
8 | CG T32A T86A T112A | 0.255 ± 0.42 | -0.0963 ± 0.053
9 | CG T76G | -0.699 ± 0.91 | -0.903 ± 0.5
10 | CG T76C | -1.37 ± 0.51 | -1.06 ± 0.46
11 | CG T76A | 0.179 ± 0.069 | 0.0494 ± 0.062
12 | CG T74A A75T | -0.113 ± 0.66 | -0.22 ± 0.27
13 | CG T111A T112A T113A T114A | -0.629 ± 0.047 | -0.668 ± 0.39
14 | CG T30A T31A T32A A33T | -0.351 ± 0.54 | -0.346 ± 0.29
15 | CG T35A | 0.179 ± 0.22 | 0.0694 ± 0.048
16 | CG T35G | 0.136 ± 0.33 | 0.163 ± 0.11
17 | CG T35C | -0.112 ± 0.24 | -0.0902 ± 0.18
18 | GG T31A T32A A33T T86A C87G T111A T112A T113A | -0.524 ± 0.35 | -0.495 ± 0.72
19 | CG T30A T84A T110A | -0.322 ± 0.51 | -0.403 ± 0.24
20 | CG T74A A75T T76A A77T | -0.829 ± 0.96 | -0.759 ± 0.32
21 | CG T105G G106T A107C T108G | -2.48 ± 1.8 | -2 ± 0.7
22 | CG T30G T31G T32G A33C | -1.21 ± 0.73 | -1.06 ± 0.5
23 | CG T28G A29C T30G T31G | -2.32 ± 0.87 | -1.98 ± 0.8

Row | Variant | relative integration efficiency (log2) [1] | relative integration efficiency (log2) [2]
24 | CG T108G A109C | -0.995 ± 1 | -1.16 ± 0.59
25 | CG T43A A44T T45A A46T | -1.06 ± 1.4 | 0.138 ± 0.031
26 | CG T48A C49G | 0.449 ± 0.71 | 0.353 ± 0.18
27 | CG T38A T39A | 0.516 ± 0.23 | 0.474 ± 0.18
28 | CG T57G A58C | -1.37 ± 0.37 | -1.45 ± 0.67
29 | CG T28G A29C | -1.26 ± 0.97 | -1.24 ± 0.55
30 | TG T76A T78G C87A | 0.336 ± 0.26 | 0.505 ± 0.035
31 | TG T76A T78A T84A C87A | 0.281 ± 0.38 | -0.028 ± 0.21
32 | CG T39A | 0.147 ± 0.58 | 0.0624 ± 0.071
33 | CG T39C | 0.161 ± 0.47 | 0.0645 ± 0.011
34 | CG T39G | 0.304 ± 0.45 | 0.00997 ± 0.055
35 | CG T35G A36C | -0.467 ± 0.11 | -0.318 ± 0.071
36 | CG T30A T31A | 0.174 ± 0.14 | 0.109 ± 0.27
37 | CG T28G T82G T108G | -3.23 ± 3.2 | -2.28 ± 0.9
38 | CG T79G G80T A81C T82G | -2.43 ± 1.1 | -2.68 ± 0.95
39 | CG T30G T84G T110G | -2.2 ± 0.51 | -1.92 ± 0.8
40 | GG T84A | -0.365 ± 0.032 | -0.231 ± 0.12
41 | AG T30G T31G T32G A33C T84G T86G C87A T110G T111G T112G T113G | -2.2 ± 1.2 | -2.54 ± 0.82
42 | CG T39G A40C T41G T43A A44C A47G C49T G51A A53T C55G A58C A59G C60A | -5.96 ± 2.7 | -4.12 ± 1.1
43 | CG T78A T79A | -0.257 ± 0.57 | -0.058 ± 0.35
44 | CG T43G A44C | 0.129 ± 0.046 | -0.0854 ± 0.05
45 | CG T111A | -0.0724 ± 0.42 | -0.134 ± 0.076
46 | CG T30G | -0.765 ± 0.6 | -0.614 ± 0.37

Row | Variant | relative integration efficiency (log2) [1] | relative integration efficiency (log2) [2]
47 | CG T30C | 0.128 ± 0.19 | 0.0623 ± 0.096
48 | CG T30A | 0.497 ± 0.092 | 0.256 ± 0.046
49 | CG T45G A46C | 0.396 ± 0.26 | -0.219 ± 0.2
50 | CG T105G | -0.747 ± 0.68 | -1.17 ± 0.51
51 | CG T105C | -0.552 ± 0.81 | -0.583 ± 0.2
52 | CG T105A | -1.22 ± 0.29 | -0.835 ± 0.58
53 | GG T86A | 0.153 ± 0.2 | -0.397 ± 0.17
54 | GG T86A C87G A88T | 0.143 ± 0.77 | -0.152 ± 0.19
55 | CG T41A T42A A44G A46G T48G A50G G51A C52G A53T C55A T56C T57A A59C | 0.615 ± 1 | -4.14 ± 1.1
56 | CG T82A A83T | -0.417 ± 0.84 | -0.851 ± 0.49
57 | CG T32A A33T | 0.105 ± 0.075 | -0.145 ± 0.16
58 | CG T45C T48C G51T C52A C55G T57G A59T C60A C61T A62T C63T A66C A67T | -0.402 ± 1 | -5.71 ± 1.3
59 | CG T48G C49A A50C G51T | -3.52 ± 2.9 | -1.55 ± 0.54
60 | GG T31A T111A | -0.483 ± 0.67 | -0.581 ± 0.56
61 | CG T32A | 0.415 ± 0.98 | 0.178 ± 0.032
62 | CG T32G | -0.347 ± 0.098 | -0.146 ± 0.14
63 | CG T32C | 0.089 ± 0.39 | -0.0923 ± 0.12
64 | CG T31A T32A | -0.442 ± 0.33 | -0.131 ± 0.028
65 | CG T42G | 0.0763 ± 0.34 | -0.115 ± 0.2
66 | CG T42A | 0.162 ± 0.27 | 0.471 ± 0.051
67 | CG T42C | 0.252 ± 0.45 | 0.37 ± 0.039
68 | CG T32A A33T T86A C87G T112A T113A | -0.463 ± 0.11 | -0.48 ± 0.21
69 | CG T86G | 0.0399 ± 0.26 | -0.108 ± 0.045

Row | Variant | relative integration efficiency (log2) [1] | relative integration efficiency (log2) [2]
70 | CG T86C | 0.176 ± 0.013 | -0.261 ± 0.092
71 | CG T86A | 0.731 ± 0.2 | 0.656 ± 0.025
72 | CG T42G T43G | 0.178 ± 0.27 | -0.123 ± 0.14
73 | CG T56A T57A A58T A59T | -1.3 ± 0.89 | -1.52 ± 0.76
74 | CG T104A T105A G106C A107T | -1.39 ± 0.94 | -2.04 ± 0.73
75 | CG T30A T31C A77C | -0.793 ± 0.14 | -0.48 ± 0.16
76 | CG T79C | -0.488 ± 0.74 | -0.605 ± 0.26
77 | CG T79G | -0.323 ± 0.18 | -0.702 ± 0.47
78 | CG T79A | -0.546 ± 0.48 | -0.596 ± 0.38
79 | CG T38A | 0.0433 ± 0.41 | -0.123 ± 0.054
80 | CG T38C | 0.236 ± 0.068 | -0.0081 ± 0.1
81 | CG T38G | 0.138 ± 0.0017 | -0.123 ± 0.065
82 | CG T30A T31C T32A A77C T86G | 0.153 ± 0.44 | 0.116 ± 0.27
83 | CG T110G T111G T112G T113G | -1.8 ± 1.2 | -1.4 ± 0.63
84 | GG T30A T31A T32A A33T T84A T86A C87G T110A T111A T112A T113A | -1.77 ± 2.3 | -1.15 ± 0.64
85 | CG T57G A58C A59C C60A | -1.48 ± 0.099 | -0.817 ± 0.47
86 | CG T20G A21C | -2.47 ± 0.87 | -2.18 ± 0.77
87 | CG T108A | -1.1 ± 0.37 | -0.257 ± 0.48
88 | CG T108G | -0.924 ± 0.023 | -0.684 ± 0.41
89 | CG T108C | -0.173 ± 0.39 | -0.187 ± 0.35
90 | GG T82A A83T T84A | -0.904 ± 0.77 | -0.974 ± 0.49
91 | AG T84G | -0.223 ± 1.1 | -0.407 ± 0.3
92 | CG T38G T39G A40C T41G | 0.212 ± 0.16 | -0.193 ± 0.16

Row | Variant | relative integration efficiency (log2) [1] | relative integration efficiency (log2) [2]
93 | CG T38A T39A A40T T41A | -0.9 ± 1.3 | 0.168 ± 0.1
94 | CG T86A C87G | 0.622 ± 0.21 | 0.28 ± 0.099
95 | CG T32G A33C | 0.439 ± 0.1 | 0.352 ± 0.14
96 | CG T105A G106C A107T T108A | -1.32 ± 0.25 | -1.6 ± 0.76
97 | CG T56A T57A | -0.409 ± 0.79 | -0.165 ± 0.21
98 | CG T86G C87A | -0.424 ± 0.33 | -0.246 ± 0.1
99 | CG T38G T39G | 0.139 ± 0.043 | -0.161 ± 0.039
100 | AG T31G T111G | -0.732 ± 0.38 | -0.99 ± 0.44
101 | AG T31G T32G A33C T86G C87A T111G T112G T113G | -1.26 ± 0.48 | -1.07 ± 0.49
102 | CG T105A G106C | -2.53 ± 0.084 | -2.19 ± 0.71
103 | CG T31G T32G | -0.16 ± 0.58 | -0.225 ± 0.34
104 | CG T79A G80C | -1.35 ± 1.1 | -1.89 ± 0.83
105 | CG T20A T74A T100A | -1.01 ± 0.38 | -1.12 ± 0.54
106 | CG T25C | 0.0625 ± 0.14 | -0.137 ± 0.12
107 | CG T25A | -0.158 ± 0.68 | -0.346 ± 0.3
108 | CG T25G | -0.618 ± 1 | -0.455 ± 0.37
109 | CG T45A A46T A47T T48A | 0.244 ± 0.78 | 0.0806 ± 0.061
110 | CG T38A T42A T45A A47T C49A G51T C52T A54T C55T T56A T57A A59T | -2.39 ± 1.1 | -2.37 ± 0.87
111 | CG T30A T31C T32A | -0.303 ± 0.45 | -0.29 ± 0.22
112 | CG T57A A58T | -3.38 ± 2.1 | -0.792 ± 0.44
113 | CG T31C | 0.331 ± 0.47 | -0.0756 ± 0.17
114 | CG T31A | 0.0948 ± 0.84 | -0.128 ± 0.14
115 | CG T31G | -0.35 ± 0.1 | -0.221 ± 0.21
